Here are results for two proteins from PMC7000685 (Nature Communications, 2020).

This data set concerns the molecule itself. In words: crystal structure; sitting-drop vapor diffusion at 20 °C, 8 mg/ml GFAT-1; 0.1 M Bis tris propane pH 8.5-9.0, 0.2-0.4 M potassium sodium tartrate, 20% (w/v) PEG3350; SEC buffer with Frc6P, 50 mM L-Arg and 50 mM L-Glu; two monomers in the asymmetric unit.

Where a chain is given by its changes, count along the chain named. Names and notes keep the numbering of the source.

B1: human glutamine fructose-6-phosphate amidotransferase-1 (GFAT-1) isoform 2, full length, with internal His6-tag (enzyme, UniProt Q06210-2 1-681, looked up)
chain: MCGIFAYLNYHVPRTRREILETLIKGLQRLEYRGYDSAGVGFDGGNDKDWEANACKIQLIKKKGKVKALDEEVHKQQDMDLDIEFDVHLGIAHTRWATHGEPSPVNSHPQRSDKNNEFIVIHNGIITNYKDLKKFLESKGYDFESETDTETIAKLVKYMYDNRESQDTSFTTLVERVIQQLEGAFALVFKSVHFPGQAVGTRRGSPLLIGVRSEHKLSTDHIPILYRTGKDKKGSCNLSRVDSTTCLFPVEEKAVEYYFASDASAVIEHTNRVIFLEDDDVAAVVDGRLSIHRIKRTAGDHPGRAVQTLQMELQQIMKGNFSSFMQKEIFEQPESVVNTMRGRVNFDDYTVNLGGLKDHIKEIQRCRRLILIACGTSYHAGVATRQVLEELTELPVMVELASDFLDRNTPVFRDDVCFFLSQSGETADTLMGLRYCKERGALTVGITNTVGSSISRETDCGVHINAGPEIGVASTKAYTSQFVSLVMFALMMCDDRISMQERRKEIMLGLKRLPDLIKEVLSMDDEIQKLATELYHQKSVLIMGRGYHYATCLEGALKIKEITYMHSEGILAGELKHGPLALVDKLMPVIMIIMRDHTYAKCQNALQQVVARQGRPVVICDKEDTETIKNTKRTIKVPHSVDCLQGILSVIPLQLLAFHLAVLRGYDVDFPRNLAKSVTVE
modifications: phosphoserine at 243 (found in mass spectrometry and in the crystal structure)
notes: human GFAT-1 isoform 2 (glutamine fructose-6-phosphate amidotransferase-1, EC 2.6.1.16), full length; residue numbers run to 681 (C-loop 670-681); His6 inserted between Gly299 and Asp300; Initial methionine removed in the purified protein; also called GFAT-1 WT; wild type GFAT-1; source: Sf21 insect cells (MultiBac baculovirus), purified (Ni-NTA, SEC); not shown: His6, internal (after residue …)
As to B1, the “stoichiometry N” value came out at 2.

B2: human GFAT-1 G451E (isoform 2, full length, with internal His6-tag) (enzyme, UniProt Q06210-2 1-681, looked up)
chain: B1 chain with G451E
notes: human GFAT-1 isoform 2, full length, with G451E; His6 inserted between Gly299 and Asp300 (made from pFL-hGFAT1-His299); Same construct as m1 with the point mutation G451E; source: Sf21 insect cells (MultiBac baculovirus), purified (Ni-NTA, SEC)
In the case of B2, the binding result was “binds”.
